Data taken from publication PMC2919722.
Where a chain is given by its changes, count along the chain named. Read-outs that look alike come from different tables or passages of the source.

T1: GST-MBD1 MBD (1-161) (UniProt Q9UIS9 1-161)
T1 sequence: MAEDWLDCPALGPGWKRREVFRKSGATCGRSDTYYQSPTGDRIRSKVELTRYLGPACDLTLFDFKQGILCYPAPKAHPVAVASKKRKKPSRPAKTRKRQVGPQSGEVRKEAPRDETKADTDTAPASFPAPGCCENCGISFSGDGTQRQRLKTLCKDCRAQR

T2: MBD1 CXXC3 (UniProt Q9UIS9-5 252-344)
T2 sequence: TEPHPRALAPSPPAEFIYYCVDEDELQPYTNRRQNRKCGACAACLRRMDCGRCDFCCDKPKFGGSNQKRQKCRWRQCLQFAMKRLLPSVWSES

B1: A/T run mutated, methylated (dsDNA)
DNA 1: ACATGCCTCATGCCGGACTCGACTGCAGCT
DNA 2: AGCTGCAGTCGAGTCCGGCATGAGGCATGT
modifications: 5mC at C14 and opposite strand CpG (implied)
B2: TmCGG, methylated (dsDNA)
DNA 1: B1 DNA 1 with C13T, C20T, G21A
DNA 2: B1 DNA 2 with C10T, G11A, G18A
modifications: 5mC at CpG, both strands (implied)
B3: CCGG, unmethylated (dsDNA)
DNA 1: B1 DNA 1 with C20T, G21A
DNA 2: B1 DNA 2 with C10T, G11A
B4: TCGG, unmethylated (dsDNA)
DNA 1: B1 DNA 1 with C13T, C20T, G21A
DNA 2: B1 DNA 2 with C10T, G11A, G18A
B5: GCGG, unmethylated (dsDNA)
DNA 1: B1 DNA 1 with C13G, C20T, G21A
DNA 2: B1 DNA 2 with C10T, G11A, G18C
B6: ACGG, unmethylated (dsDNA)
DNA 1: B1 DNA 1 with C13A, C20T, G21A
DNA 2: B1 DNA 2 with C10T, G11A, G18T
B7: CCGC, unmethylated (dsDNA)
DNA 1: B1 DNA 1 with G16C, C20T, G21A
DNA 2: B1 DNA 2 with C10T, G11A, C15G
B8: CCGA, unmethylated (dsDNA)
DNA 1: B1 DNA 1 with G16A, C20T, G21A
DNA 2: B1 DNA 2 with C10T, G11A, C15T
B9: CCGT, unmethylated (dsDNA)
DNA 1: B1 DNA 1 with G16T, C20T, G21A
DNA 2: B1 DNA 2 with C10T, G11A, C15A
B10: CmCGC, methylated (dsDNA)
DNA 1: B1 DNA 1 with G16C, C20T, G21A
DNA 2: B1 DNA 2 with C10T, G11A, C15G
modifications: 5mC at CpG, both strands (implied)
B11: TGmCGCA, methylated (dsDNA)
DNA 1: ACATGCCTCATTGCGCACTTAACTGCAGCT
DNA 2: AGCTGCAGTTAAGTGCGCAATGAGGCATGT
modifications: 5mC at CpG, both strands (implied)
B12: TTmCGCA, methylated (dsDNA)
DNA 1: B11 DNA 1 with G13T
DNA 2: B11 DNA 2 with C18A
modifications: 5mC at CpG, both strands (implied)

What was measured:
Test in all cases: EMSA
GST-MBD1 MBD (1-161) [1] = molecular target: T1, GST-MBD1 MBD (1-161)
GST-MBD1 MBD (1-161) [2] = molecular target: T1, GST-MBD1 MBD (1-161); remark: listed apart in the source
MBD1 CXXC3 = molecular target: T2, MBD1 CXXC3
GST-MBD1 MBD (1-161) [3] = molecular target: T1, GST-MBD1 MBD (1-161); remark: listed apart in the source
GST-MBD1 MBD (1-161) [4] = molecular target: T1, GST-MBD1 MBD (1-161); remark: listed apart in the source
GST-MBD1 MBD (1-161) [5] = molecular target: T1, GST-MBD1 MBD (1-161); remark: listed apart in the source

| Binder | binding result (MBD1 CXXC3) | also measured |
| --- | --- | --- |
| B1 |  | binding result (GST-MBD1 MBD (1-161) [1]): binds |
| B2 |  | binding result (GST-MBD1 MBD (1-161) [2]): binds |
| B3 | binds |  |
| B4 | binds |  |
| B5 | binds |  |
| B6 | binds |  |
| B7 | binds |  |
| B8 | binds |  |
| B9 | binds |  |
| B10 |  | binding result (GST-MBD1 MBD (1-161) [3]): binds |
| B11 |  | binding result (GST-MBD1 MBD (1-161) [4]): binds |
| B12 |  | binding result (GST-MBD1 MBD (1-161) [5]): binds |
